The source of these data is patent US20210388084A1.

A value given as a limit tells only on which side of the number the result lay.

In test [1] the target is membrane-bound full-length human CD89 (human) (UniProt P24071). Briefly: FACS, HEK293F-huCD89, titrated Ab; competitor non-aggr serum IgA.
For test [2] the target is unchanged. Briefly: FACS, HEK293F-huCD89, titrated Ab; competitor heat-aggr serum IgA.
For test [3] the target is unchanged. Briefly: FACS, HEK293F-huCD89, unlabeled Ab 10 ug/mL first; competitor A59-PE.
Test [4] has the same target. Briefly: FACS, HEK293F-huCD89, unlabeled Ab 10 ug/mL first; competitor A3-PE.
Test [5] shares this target. The test can be described thus: FACS, HEK293F-huCD89 (Example 7 (b)); competitor non-aggr serum IgA.
Test [6] has the same target. Briefly: FACS, HEK293F-huCD89 (Example 7 (b)); competitor heat-aggr serum IgA.
The target is the same in test [7]. Briefly: FACS, HEK293F-huCD89, unlabeled Ab 10 ug/mL first; competitor MIP8a-PE.
For test [8] the target is unchanged. The test can be described thus: FACS, HEK293F-huCD89, 4C +NaN3, IgA then Ab 10 ug/mL; pre-bound non-aggr serum IgA.
For test [9] the target is unchanged. Briefly: FACS, HEK293F-huCD89, 4C +NaN3, IgA then Ab 10 ug/mL; pre-bound heat-aggr serum IgA.
For test [10] the target is unchanged. The test can be described thus: FACS, HEK293F-huCD89, 4C +NaN3, Ab 10 ug/mL then IgA; competitor non-aggr serum IgA.
Test [11] has the same target. Briefly: FACS, HEK293F-huCD89, 4C +NaN3, Ab 10 ug/mL then IgA; competitor heat-aggr serum IgA.
Test [12] has the same target. Briefly: FACS, HEK293F-huCD89, 24 h 37C no NaN3, IgA then Ab 10 ug/mL; pre-bound non-aggr serum IgA.
Test [13] has the same target. The test can be described thus: FACS, HEK293F-huCD89, 24 h 37C no NaN3, Ab 10 ug/mL then IgA; competitor non-aggr serum IgA.
The target is the same in test [14]. Briefly: FACS, HEK293F-huCD89, 24 h 37C no NaN3, IgA then Ab 10 ug/mL; pre-bound heat-aggr serum IgA.
The target is the same in test [15]. The test can be described thus: FACS, HEK293F-huCD89, 24 h 37C no NaN3, Ab 10 ug/mL then IgA; competitor heat-aggr serum IgA.

Regarding “mouse anti-human CD89 antibody clone A59 (BD Biosciences)”, the maximum inhibition of IgA binding in [1], in test [2], in test [5] and in test [6] was 60% throughout. The % blocking of A59-PE binding in test [3] was > 90%. The % blocking of A3-PE binding in test [4] was > 90%. The % blocking of MIP8a-PE binding in [7] is < 25%. For the same substance, the percent IgA binding lay within 76 to 125% in test [8], 76 to 125% in test [9], 26 to 50% in test [10] and 26 to 50% in test [11]. The % blocking of IgA binding in test [10] and in test [11] was 60% throughout. Besides, the percent IgA binding (remaining) in [12] fell in the range of 26 to 50%; in [13], 26 to 50%; in test [14], 76 to 125%; in test [15], 76 to 125%.

Regarding “purified mouse IgG1 isotype control (antibody)”, the percent IgA binding in test [8], in [9], in test [10] and in test [11] was 76 to 125% throughout. Besides, the percent IgA binding (remaining) in test [12], in [13], in test [14] and in test [15] was 76 to 125% throughout.

Regarding “mouse anti-human CD89 antibody clone MIP8a (BioRad)”, in test [3], the % blocking of A59-PE binding turned out to be 50%. In test [4], this substance yielded a % blocking of A3-PE binding of 55%. Moreover, in [7], the % blocking of MIP8a-PE binding was > 90%. In addition, the percent IgA binding in test [8], in test [9], in test [10] and in test [11] was 0 to 25% each time. In addition, the percent IgA binding (remaining) in [12], in [13], in [14] and in test [15] was 0 to 25% each time.

In the case of “mouse anti-human CD89 antibody clone A3 (Santa Cruz Biotechnology)”, the maximum inhibition of IgA binding in test [1], in [2], in test [5] and in [6] was 60% throughout. Besides, the % blocking of A59-PE binding in [3] was > 90%. Moreover, the % blocking of A3-PE binding in [4] was > 90%. Besides, the % blocking of MIP8a-PE binding in [7] is < 25%. Further, the percent IgA binding in [8] was 76 to 125%; in test [9], 76 to 125%; in test [10] it was 26 to 50%; in [11] it was 26 to 50%. Moreover, the % blocking of IgA binding in [10] and in [11] was 60% in each case. The percent IgA binding (remaining) in test [13] fell in the range of 26 to 50%; in test [14], 76 to 125%; in test [15], 76 to 125%.
